In patent US20110135634A1, “METHODS OF INHIBITING INFECTION BY DIVERSE SUBTYPES OF DRUG-RESISTANT HIV-1” (priority 2007, published 2011):
Several values for one entry are separate records, joined by “and”; a condition that tells them apart may be missing. Equal entries are not always repeated. Where two headings read alike, the source gives them in different places.

Columns and labels:
[1] = system: reporter viruses pseudotyped with HIV-1JR-FL envelope (U87-CD4-CCR5 cells); test: microbe, parasite or virus in culture; type: cell-based
[2] = target: T1, CCR5 on CEM.NKR-CCR5 cells (Homo sapiens, UniProt P51681); test: Competition binding: inhibition of PRO 140-PE binding; settings: based on percent cells gated; 5 nM PRO 140-PE
T1 construct: host or cells: CEM.NKR-CCR5 (transduced human T cell leukemia line)
Method: Azide was added to block CCR5 internalization during the assay.

[3] = target: T1, CCR5 on CEM.NKR-CCR5 cells; test: Competition binding: inhibition of 3H-UK-427,857 binding; settings: read-out: EC50, inhibition of 3H-UK-427,857 binding; 2 nM 3H-UK-427,857, CEM.NKR-CCR5 cells
Source text: The cells were washed in PBSA and lysed with 0.5N HCl prior to scintillation counting using a Wallac 1410 instrument.

[4] = system: primary R5 HIV-1 isolates; test: Whole virus replication (neutralization) assay; type: cell-based; settings: a variety of primary R5 strains (FIG. 1)
Method: Humanized PRO140 is potently antiviral. […] The data reflect the median values from 8 or more independent assays. The genetic subtypes of the viruses are indicated in parentheses.
Stimulated PBMCs are seeded into wells of 96-well flat bottom plates at a density of 1.4×10^5 cells/well. Virus is diluted to 2,000 TCID50/ml and mixed with serial 0.5 log10 dilutions of compound for 1 h at 37° C. prior to addition to the cell plates. The final amount of virus added per well is 100 TCID50. The final DMSO concentration in the assay is always 0.5% whenever small molecule inhibitors are being tested. Plates are incubated at 37° C. for 5 days, at which time an aliquot of supernatant is removed for p24 antigen ELISA.
The percent inhibition is derived as follows [1−(p24 levels in the presence of drug/p24 levels in the absence of drug)]×100.

[5] = human, in vivo
Method: Individuals were treated in sequential, dose-rising cohorts of 5 subjects (4 active and 1 placebo) each and evaluated for up to 120 days post-treatment. […] Safety assessments consisted of monitoring the following: vital signs (blood pressure, pulse, temperature, etc; hematology (hemoglobin, hematocrit, leukocytes, platelets, etc.); serum chemistries (AST/ALT, alkaline phosphatase, BUN, creatinine, etc.); urinalysis (pH, specific gravity, protein, glucose, leukocytes, etc.); and ECGs (12-lead).

CCR5 lymphocytes = type: in vivo, human
Method: Whole blood specimens were combined separately with the indicated phycoerythrin-labeled anti-CCR5 antibodies or with appropriate isotype-control antibodies. Erythocytes were lysed and leukocytes were stabilized using the ImmunoPrep Reagent System (Beckman Coulter), and the cells were analyzed on a TQ Prep™ flow cytometry workstation (Beckman Coulter). Data were expressed as the percent of CCR5 cells relative to all cells gated in the analysis.
For up to 60 days post-treatment, at the times indicated in FIG. 6, blood was collected and analyzed for CCR5 lymphocyte levels.
Background binding of isotype control antibodies was unchanged.

[6] = system: primary R5 HIV-1 isolates JR-FL and Case C 1/85 (CC1/85); test: In vitro resistance selection and susceptibility testing on PBMC; type: cell-based; settings: p24 ELISA
Method: For susceptibility testing, viruses were cultured in vitro on stimulated PBMC. In the presence and absence of serially diluted drug, and the extent of viral replication was determined by p24 ELISA.

[7] = system: HIV-1 (CCR5-tropic virus); type: in vivo; settings: for Mean log10 HIV RNA change: Day 10 post-treatment
Source text: The efficacy data collected during the study were changes in viral load and CD4 counts over time. The safety data collected during the study were serious adverse events (SAEs)/adverse events (AEs) and changes in laboratory parameters (hematology, chemistry), physical exam, viral tropism and ECGs over time.
(§1) All patients were screened prior to the study for the presence of virus that utilizes only CCR5 as the entry coreceptor, i.e., CCR5-tropic virus.
The primary efficacy endpoint was the reduction in plasma HIV RNA level as measured by the Roche Amplicor™ Assay. The primary efficacy endpoint is the maximum change from baseline in viral load, defined as HIV-1 copies/ml, as measured by the Roche Amplicor™ Assay.

[8] = Phase 1b clinical trial: safety, PK, immunogenicity, tropism, susceptibility; type: in vivo, human; settings: HIV-infected subjects
Source text: as §1

[9] = system: CCR5 chemokine signaling (L1.2-CCR5 cells); test: RANTES-induced calcium mobilization in L1.2-CCR5 cells versus HIV-1JR-FL replication in PBMC (FIG. 4); type: cell-based, human; settings: PBMC cultures, similar results for MIP-1α and MIP-1β
Source text: Similar results were obtained for MIP-1α and MIP-1β.

HIV-1JR-CSF = test: hu-PBL-SCID mouse model of HIV-1 infection (FIG. 5); type: in vivo, SCID mice; settings: multiple doses after steady state viral levels
Method: SCID mice were reconstituted with normal human peripheral blood mononuclear cells and infected 2 weeks later with HIV-1JR-CSF. Multiple doses of PRO 140 were administered following attainment of steady state viral levels. Plasma viral loads pre- and post-injection are indicated.

CCR5 = CCR5 (Homo sapiens, UniProt P51681); settings: cited from earlier work
[10] = JRFL, labelled 1st inhibitor with 2nd inhibitor PRO 140 (equimolar; 1:10 PRO 140 to nevirapine or zidovudine)

CCR5, sequence (P51681 whole entry): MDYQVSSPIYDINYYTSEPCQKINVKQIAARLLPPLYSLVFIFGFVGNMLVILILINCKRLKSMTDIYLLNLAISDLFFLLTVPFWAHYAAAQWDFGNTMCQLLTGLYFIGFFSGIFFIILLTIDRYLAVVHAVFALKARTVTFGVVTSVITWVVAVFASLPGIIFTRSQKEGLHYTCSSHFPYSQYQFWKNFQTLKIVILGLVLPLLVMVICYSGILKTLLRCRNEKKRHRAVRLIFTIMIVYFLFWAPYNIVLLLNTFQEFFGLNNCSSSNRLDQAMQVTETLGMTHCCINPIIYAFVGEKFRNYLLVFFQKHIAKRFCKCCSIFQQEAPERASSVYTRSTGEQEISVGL
T1 sequence (P51681 whole entry): as above

B1: PRO 140: humanized IgG4,κ anti-CCR5 mAb being developed for HIV-1 therapy (antibody, chains of the INN, looked up, V domains shown)
VH: EVQLVESGGGLVKPGGSLRLSCAASGYTFSNYWIGWVRQAPGKGLEWIGDIYPGGNYIRNNEKFKDKTTLSADTSKNTAYLQMNSLKTEDTAVYYCGSSFGSNYVFAWFTYWGQGTLVTVSS
VL: DIVMTQSPLSLPVTPGEPASISCRSSQRLLSSYGHTYLHWYLQKPGQSPQLLIYEVSNRFSGVPDRFSGSGSGTDFTLKISRVEAEDVGVYYCSQSTHVPLTFGQGTKVEIK
[1]; HIV-1 envelope JRFL, 1st inhibitor alone, read-out: IC50
  IC50: 2.2 nM
[1]; HIV-1 envelope JRFL, 1st inhibitor alone, read-out: IC90
  IC90: 28 nM
[1]; [10]
  CI50: 1.2 ± 0.32
  CI90: 0.90 ± 0.15
[2]
  EC90: 17 nM
[3]
  EC50: 14 nM
[4]
  IC90: 3 to 4 µg/mL
[5]
  dose-limiting toxicity: no dose-limiting toxicity
CCR5 lymphocytes; in vivo, 2 mg/kg
  overall number of CCR5 lymphocytes as measured by CTC5 binding: no decrease
CCR5 lymphocytes; single 2 mg/kg dose
  time CCR5 lymphocytes effectively coated without cellular depletion: two weeks
  time cells remain partially coated: > 4 weeks
CCR5 lymphocytes; single 5 mg/kg dose
  time cells remain partially coated: > 60 days
[6]
  inhibition of SCH-D escape mutants: efficiently inhibited
[7]; 2.0 mg/kg and 5.0 mg/kg dose levels
  individual reductions of viral load: up to 2.5 log10 and ≤ 99.7%
[7]; 5 mg/kg
  AUC viral load: significantly decreased
  Maximum decrease of viral load at any time: −1.8 log
  Patients with <400 copies/mL (anytime): 4/10
  Patients with >1 log decrease (anytime): 10/10
[7]; 5.0 mg/kg cohort
  time of return of viral load to baseline: approximately 30 days
  time to suppression of mean viral load by 1.0 log10 (90%): within four days
  time viral load persisted at or below the 1.0 log10 level of reduction: two to three weeks
[7]; 5 mg/kg, day 8
  mean increase in CD4+ lymphocytes: 129 cells/μL
[7]; 5 mg/kg, day 22
  Viral load decrease: −0.73
[7]; 0.5 mg/kg
  Mean log10 HIV RNA change: −0.37 log10
[7]; 2.0 mg/kg
  Mean log10 HIV RNA change: −1.04 log10
[7]; 5.0 mg/kg
  Mean log10 HIV RNA change: −1.70 log10
[7]; highest dose cohort
  response rate (percentage of patients with a ≧1 log10 decrease in HIV RNA at any time): 100%
[8]
  change in plasma RANTES (CCL5) chemokine levels: No change
[8]; 0.5-5.0 mg/kg
  dose-limiting toxicity: No dose-limiting toxicity
  treatment related SAEs: No treatment related SAEs
[8]; all study groups
  tolerability: well-tolerated
[9]
  effect on RANTES-induced calcium mobilization and on HIV-1JR-FL replication: blocks HIV-1 but not chemokine signaling
HIV-1JR-CSF
  control of viral replication (plasma viral loads): prolonged control of viral replication
CCR5; Table 2 summary
  Block Natural Activity of CCR5: No
  Development of Resistance In Vitro: None at 40 weeks
  Viral Cross-Resistance: Limited
CCR5
  tolerability: No Toxicity
